# Literature values, collected in article PMC4723247, “Novel α-L-Fucosidases from a Soil Metagenome for Production of Fucosylated Human Milk Oligosaccharides” (PLoS ONE, 2016).
# B1: FucA1;FucA: α-L-fucosidase FucA1 from Rattus norvegicus (Uniprot P17164) (protein, UniProt P17164 29-462, looked up)
# Tissue alpha-L-fucosidase: APHHYTPDWPSLDSRPLPRWFDEAKFGLFVHWGVYSVPAWGSEWFWWHWQGEQSSAYVRFMKENYPPGFSYADFAPQFTARFFHPEEWADLFQAAGAKYVVLTAKHHEGFTNWPSAVSWNWNSKDVGPHRDLVGELGAAVRKRNIRYGLYHSLFEWFHPLYLLDKKNGLKTQHFVSTKTMPELYDLVNRYKPDLIWSDGEWECPDSYWNSTEFLAWLYNESPVKDQVVVNDRWGQNCSCRHGGYYNCEDKYRPHSLPDHKWEMCTSVDKASWGYRRDMSMSTIVDENEIIEELVQTISLGGNYLLNIGPNKDGVIVPIFQERLLAVGKWLQINGEAIYASKPWRVQSERNKTVVWYTTKDSAVYATFLHWPEDGVVNLQSPKMTSATKITMLGMEGELHWTQDPLEGVLITLPQLPPGTFPVESAWTLKLTKVN
# B2: AtFUC1;At2g28100: α-1,3/4-L-fucosidase 1 from Arabidopsis thaliana (Uniprot Q8GW72) (protein, UniProt Q8GW72 24-506, looked up)
# Alpha-L-fucosidase 1: SSLLKPHPCPILPLPSSQQLQWQLGSMAMFLHFGPNTFTDSEWGTGKANPSIFNPTHLNASQWVQIAKDSGFSRVILTAKHHDGFCLWPSEYTDYSVKSSQWRNGAGDVVAELASAAKEAGIGLGLYLSPWDRHEQCYGKTLEYNEFYLSQMTELLTKYGEIKEVWLDGAKGDGEKDMEYFFDTWFSLIHQLQPKAVIFSDAGPDVRWIGDEAGLAGSTCWSLFNRTNAKIGDTEPSYSQEGDGYGQDWVPAECDVSIRPGWFWHASESPKPAVQLLDIYYNSVGRNCLFLLNVPPNSSGLISEQDIKVLEEFSEMKNSIFSNNLARKAFVNSSSIRGDQSSQFGPKNVLEEGLDKYWAPEENQNEWVLYLEFKDLVSFNVLEIREPIHMGQRIASFHLETRKTGSGEWERVVSGTTVGNKRLLRFLNVVESRSLKLVVDKARTDPLISYLGLYMDKFSGSSRNTTKITITRTLKEEQQLHDL
# B3: FUCA1: α-L-fucosidase from Canis lupus familiaris (Uniprot P48300) (protein, UniProt P48300 27-465, looked up)
# Tissue alpha-L-fucosidase: LVRAAAPPRRYTPDWQSLDSRPLPDWFDKAKFGVFVHWGEFAVPAWGSEWFWWHWKGEGLPQYEQFMSENYPPGFSYADFGPQFTARFFHPDTWADLFQAAGARYVVLTTKHHEGFTNWPSSVSWNWNSNDVGPHRDLVGELGRALRKRNIRYGLYHSLLEWFHPLYLLDKKNNFKTQFFVRAKTMPELYDLVNRYEPDLIWSDGEWKCPDTYWNSTEFLSWLYNDSPVKDHVVVNDRWGQNCSCHHGGYYNCQDKYKPESLPDLKWEMCTSIDKVSWGYRRNMVMSDVASECEIISELVQTVSLGGNYLLNIGPTKDGLIVPIFQERLLSIGKWLSINGEAIYASKPWRVQLEKNTTSVWYTSRGMTVYAIFLRWPENGVLSLKSPVTTSTTQITMLGIQKDLKWSTEPEGLLIYLPQLSLFTLPVEFGWTIKLTGVE
# B4: FucA2;Mgc1314;dJ20N2.5: α-L-fucosidase FucA2 from Homo sapiens (Uniprot Q7Z6V2) (protein, UniProt Q9BTY2 29-467, looked up)
# Plasma alpha-L-fucosidase: HSATRFDPTWESLDARQLPAWFDQAKFGIFIHWGVFSVPSFGSEWFWWYWQKEKIPKYVEFMKDNYPPSFKYEDFGPLFTAKFFNANQWADIFQASGAKYIVLTSKHHEGFTLWGSEYSWNWNAIDEGPKRDIVKELEVAIRNRTDLRFGLYYSLFEWFHPLFLEDESSSFHKRQFPVSKTLPELYELVNNYQPEVLWSDGDGGAPDQYWNSTGFLAWLYNESPVRGTVVTNDRWGAGSICKHGGFYTCSDRYNPGHLLPHKWENCMTIDKLSWGYRREAGISDYLTIEELVKQLVETVSCGGNLLMNIGPTLDGTISVVFEERLRQMGSWLKVNGEAIYETHTWRSQNDTVTPDVWYTSKPKEKLVYAIFLKWPTSGQLFLGHPKAILGATEVKLLGHGQPLNWISLEQNGIMVELPQLTIHQMPCKWGWALALTNVI
# B5: AlfA: α-L-fucosidase from Dictyostelium discoideum (Uniprot P10901) (protein, UniProt P10901 19-461, looked up)
# Alpha-L-fucosidase: QQYGPTWDQINSRPLPGWYDDVKFGIFIHFGIYSVPAFANGGYAEWYWWTLKNPSSDGGATQRYHEKEFGANFTYQDFVSRFDCRLFDANEWASIIEKSGAKYVVLTSKHHEGYTLWNSEQSWNWNSVETGPGIDIVGELTKSVKNMGLHMGLYHSLFEWFNPLYLADAETGKNPTTQVYVDEILMKQLKDIVTTYEPELIWADGDWMQLSNYWKSTEFLSWLYTNSSVKDTVIVNDRWGSECRDKNGGFYTGADHFNPYKLQSHKWENCATIGYSYGYDEYEQATDYQNATELIIDLVTTVACGGNFLLDVGPDAQGTIPNNMVDRLLEIGNWLSINSESIYGSSPWRVQNMTFNIWYTTNTTNGNVYAFVFELPDDGVLILSDPIGNNKTEATLLGLKGEKGVEVSLPIESTKPGITLNIPMVAPQDYPPYVYVFRLTDVE
# Set-up: method as in earlier work
# Settings: S2 Table; wrapped lists given only as far as the first printed line; ref http://www.cazy.org/GH29_characterized.html and S2 Table refs 1-18
Molecule,Reported substrates hydrolyzed,Reported substrates not hydrolyzed
B1,"Hydrolyzes pNP-Fuc, α1-2, α1-3, and α1-4 fucosyl linkages",Fucα1- 2GlcNAcβ-p NP
B2,"2-aminobenzamide labeled LNFP II, 3FL, fucose linked α1-4","2-aminobenzamide labeled 2’-FL, pNP-Fuc"
B3,4- methylumbelliferyl- α- L-fucopyrano side,4- methylumbellife ryl β-fucopyranos i de
B4,"Hydrolyzes pNP-Fuc, prefers α1-2 but capable of cleaving",–
B5,6- O-alpha-L-fucopyranosyl- N-acetylglucosaminitol,Lacto-N-fucopentaitol II

# Same assay, conditions: S2 Table; wrapped lists given only as far as the first printed line; ref http://www.cazy.org/GH29_characterized.html and S2 Table refs 1-18; listed as FucA1
row,Molecule,Reported substrates hydrolyzed
1,B3,"4- methylumbellife ryl α- L-fucopyranoside, pNP-F uc, 2’ -FL"
